# From article PMC3579926
# Where “and” joins values, the source holds several entries; their conditions need not be identical. Equal values may be shown once.
# Key:
# Assay in all cases: SEC; Superdex 200 (10/300), 4°C, protein at 1 mg/mL, 20 mM HEPES-NaOH pH 7.5, 1.0 M NaCl, 20 µM ZnCl2, 5 mM β-mercaptoethanol; dimer, and dimer to tetramer
# [1] = biological target: RSV IN(1–270) (Rous sarcoma virus (Prague A strain))
# [2] = biological target: RSV IN(1–270)•C23S (Rous sarcoma virus (Prague A strain))
# [3] = biological target: RSV IN(49–270) (Rous sarcoma virus (Prague A strain))
substance,measurement,setting,value
RSV IN(1–270) (domain or fragment),stoichiometry N,[1],2 and 4
RSV IN(1–270)•C23S (domain or fragment),stoichiometry N,[2],2
RSV IN(49–270) (domain or fragment),stoichiometry N,[3],2
